# Test: soluble on expression in E. coli; label from the status in PepcDB or PDB records
row,Sequence,soluble on expression in E. coli
1,MGSDKIHHHHHHMDKLIAFLKDKKITEVECVISDMTGIARGKIAPVDKFVSEKGMRLPESVLLQTVTGDFIDDEVYYQLLDDADIDFVCVPDENAVFMLPWTVEATAQVIHDCYDRMGNPIELSPRNVLKKVLKLYEDKGWEPVIAPEMEFYLTKRSDDHDLPLKPPIGRSGRPEAGRQSFSIDAANEYDPLFEDMYDWCEIQGLDIDTLIHEDGPAQMEINFSHGNALSLADQVFIFKRTLKEAALKHDVCATFMAKPVTDEPGSAMHIHQSVLDIKTGKNIFTKDDGTQSKLFLSYIAGLQQYIPELLPLMAPSANSFRRFLPGTSAPVNLEWGVENRTCGLRIPESSPQNRRIENRIPGADANCYLAIAASLLCGYIGMVDDLKPSTPVTGKSNESRTNNENCLPLTLEEALVAMQSSDACIEYLGQSFTTGFVAVKQAELENFRRVVSSWEREFLLLTV,not soluble
2,MSLKTTLPISLDWSTEEVIDVVHFFQAIEQAYDQGIAREDLLGKYRRFKEIVPSKSEEKQLFRAYEQENDVSCYQTIKKAREEMEEHIQMEGHHHHHH,soluble
3,MIKPYDFVPFLPYKPYDDVKAERGDGKIPIRVKTLTPVHIPSGEYTVSGDNSMIYKEFVKVNGVPVIPGTSFKGCIRSIAESISYSCLYIFDKQKKELIPEFKLEAQEKDHEKNKEQRNENGKKCIVSDMFGMPGQKSKIVFNDLRGVPNKYKLEIKGIPTSFRPNPDAEYYLENGKYKGYKFYKHGINGIQPKGNMLCEFAAENSLFEGEIIYKNLTEEQIRLLCFSLGLSGDINPKIGYGKNYFYGSIEVTSDAKWVEKAKQYKNIEKDDIKNNINLIISILNYKNAVTSVD,soluble
4,MGSDKIHHHHHHMKNIKIFPKDWLQLHPYKQSTPVDSYYTGIANRIYDIMEKTELVNSFEGEETKQICIRMAAYFEDVISGMGLWRAFILTHKELYGKYLPFYTPDDHYYDDEVNLEDVRFLLWHYTQQYHGYRKGTFVSPDNPANESTGMLIYDLFCKEWTTAPENTRMAKLFALDTRYERQEDYDRLLQWFHYESYILPESARELSDFAHDRWKEQPDLNQEQLNNLLVNSHGMMAYTSKTSLLGLTSPQWLAKILPAEHPDHAVFQNTADESVATLPDDMLEENRQQYETFRKAAGDKLLLYFDKTEDAQTFITETSGLIPAENFHLPEDWQGKKLAIYATPEEGAQVITRDVELIKDENNPFYDANRAAKQALSFFIVKHCSVYFLPELVKRGMLADAQTKSLISPERGKAIIQENWKFLARYFIREYPNR,not soluble
5,MQDYMQHLPHMQEIKSEILNKVLTQVQSYDESQFSAKDVKNALNQTHLSIEHLKALLSSAAEDFIEELAFKSAKVKQKYFGNSISLFTPLYLSNYCNSKCVYCGFQKGNKIARAKLNEAEIHEEMQAIAKSGLEEILMLTGEGREFASVEYIANACKIAREYFKVVGVEIYPMNEDEYKILHEKGCDYVTVFQETYNPLKYSKIHLAGEKRIFPYRFNAQERALKAGMRGVAFAALLGIDDFRKDALATALHAHFLQQAYSHAEISISVPRLRPIINNAKIHPKDVSEKRLLQVLCAYRLFLPFAGITISSRERIGFRDEVIKLGATKMSAGVSVGIGEHKGEKKGDEQFEISDDRSVDEILAMLKRSNLQAVMSDSIYVG,not soluble
6,MNALTALSPLDGRYASKCDALRPFLSEFGLIHARVTVEVRWLQALSNHAGIIEVAPFSTETNAALDSIVANFSEDDANRIKEIERTTNHDVKAVEYFLKEKIAGLDELKNAGEFIHFACTSEDINNLSHALMLKNGREVLVSSMKQILNAIAALATTHAEQPMLSRTHGQTASPTTLGKEMANVAYRLARQIKQFENVELLGKINGAVGNYNAHLSAYPDIDWAAHSQAFVESLGLTFNPYTTQIEPHDYMAELFDALRRYNTILIDFNRDVWGYISLGYFKQKLKDGEVGSSTMPHKVNPIDFENSEGNLGIANAVLGHLGEKLPVSRWQRDLTDSTVLRNMGVGFAQSLIAFDACLKGIGKLELNAARLAEDLNQAQEVLAEPIQTVMRRYNVEKPYEKLKALTRGQAMTRDMMVNFVNGDELSQVPAEERARLAEMTPASYTGNAADQAKQINDLINKI,not soluble
7,MEHRPVLETESNLVITLVADIVAAYVSNNSIRPTEVPSLIADVHAAFRKAGNADLTEVEVEKQRPAVNPKRSIFPDYLICLEDGKKFKSLKRHLMTHYGMLPEEYREKWQLDSSYPMVAPNYAKARSALAKEMGLGRKSKRKKTK,not soluble
8,AIAPAKERFFGFHPCKLVEQVEDCVRDLLEDALDGLETSLFRECALAFDALQENAVTSEHEHAKRLLLQQGLMRLRDALFTAFYDQMDRLQVYLLRNVFHIPPGLRIPNVNTSEDLVENWEQALGIDPSSVQIDANAEDEHAVDQELVALRQSLRVARQRLQRLCRERSVLEGAFHRLEGALQSRLASTLIPTEPEDPSGDCDALAKQVVTIARAVSELEAVVRSCRDQFLGDRSSAASGGAPPSGTVPAAAGGSDVGAQGALVRPPLELERIFDAHTKATRVDSLDAVDALRRALHRSC,soluble
9,MAHHHHHHMPFVDHNKYKIQREDLPALPHFTDFNDPRFCGTNNKQKNGILAYYQWLHCVGNWGEEHSMCKKMRWYVERMMQEVWLEKWEEKRALGHFDHVLLYGVKPWKDFEPLYQPVKTNRKGAYEFWLDRDFEPLYDADASDFCEKAPILHDIFVKGKKPVYDE,not soluble
10,MGSDKIHHHHHHMITVNDLSVQFGKRILFQDVNLTFTPGNCYGIIGANGAGKSTMLRVISKQLDPTRGTVTLGPGERLSVLSQDHFAFDENTVMDTVLMGHSVLWAIMEEKNALYAKPDFSDEDGTRVAELEDKFAEMEGWNAESDAAMLLSGLGIKEDLHYMLMKDLSGKQKVRVLLARALYGKPDNLLLDEPTNDLDLETVSWLENYLSNFENTVLVVSHDRHFLDSVCTHTVDIDFGKVQQFSGNYSFWYESSQLALRQQQQQNKKAEEKRKELEEFIRRFSANVAKSKQTTSRKKMLEKLNIEEITPSSRRYPGILFTPGREPGNKILEVKGLTKSIEGQLLFRDLNFNVEKDDKIVFISRDPRAMTALFSIINGEMTPDEGTYEWGQTITTAYLPLDNSGYFNTDLNLVEWLSQFAKDTNEVFLKGFLGRMLFSGEEILKKASVLSGGEKMRCMISKMMMLDANTLVLDTPTNHLDLESIQAFNNTLKTYRGNVLFASHDHEFIQTVANRIIELTPNGIIDKIMDYDDYITDPIVAEMRQKLYGQ,not soluble
11,MGSDKIHHHHHHMTKTKNEKEEFIRVGTTLYKLVNQPRLNGGYVRKRIVWNNETLRQDYGKDYLATVPKYDGFCTVPNHVDYRPVVDKFLNLYEPIEHCPQQGEFPCIQSLVRHIFGEQYELGMDYLQLLYLQPVQKLPILLLVSEERNTGKSTFLNFLKALFQNNVTFNTNEDFRSQFNSDWAGKLLIVVDEVLLNRREDSERLKNLSTTLSYKVEAKGKDRDEIAFFAKFVLCSNNEYLPVIIDAGETRYWVRKIDRLQSDDTDFLQKLKAEIPAFLHFLQHRQLSTEKESRMWFAPSLLHTEALRKIIRSNRNRLEIEIHELILDIMDSVGTDTFSFCYNDLLLLLVHSQVKVEKYQVRKVLQECWKLTPASNGLTYTTYQFNYNRECRYEPIKRVGRFYTVTRKQLDSL,not soluble
12,RYWQLEVAPRRRADPPEALLELLDRSVTARMQGGPVGSMLSGGLDSGTVSMLASRRSEGPLPVISMKFDDHPEIDESEWIAKIHAAGRFRPVWIDGRDAHGGDVAELLAEQGGPFFAPNLATSRWLYRRAAEAGVEILLDGHGGDEVISFGVARLTELASEAQWRTLWQSTAAVSDLFGGSRREFFLNSMAQGAQSRWLRAMARRLNVGAKRDPRAWRQALHPALVARTGLVQRVQEAAGARKRGATDDIRQHVATLTAPRYPTTLEVLDRAATLCGIEPRYPFLERRLIEHCVAQPAAAKFHDGMTRALLRDAVRGLLPDEVRLRTSKTNFTPNVRARMLTSWGDNLNRIAGCNPGRIGDYVDLAVIREGIQRLRAGEPDQPALLQTMRAVVLDEWLR,not soluble
13,MVLKRKGLLIILDGLGDRPIKELNGLTPLEYANTPNMDKLAEIGILGQQDPIKPGQPAGSDTAHLSIFGYDPYETYRGRGFFEALGVGLDLSKDDLAFRVNFATLENGIITDRRAGRISTEEAHELARAIQEEVDIGVDFIFKGATGHRAVLVLKGMSRGYKVGDNDPHEAGKPPLKFSYEDEDSKKVAEILEEFVKKAQEVLEKHPINERRRKEGKPIANYLLIRGAGTYPNIPMKFTEQWKVKAAGVIAVALVKGVARAVGFDVYTPEGATGEYNTNEMAKAKKAVELLKDYDFVFLHFKPTDAAGHDNKPKLKAELIERADRMIGYILDHVDLEEVVIAITGDHSTPCEVMNHSGDPVPLLIAGGGVRTDDTKRFGEREAMKGGLGRIRGHDIVPIMMDLMNRSEKFGA,soluble
14,MGSDKIHHHHHHMDDTTFLSTKEKILEIKPLMESAFGNILGYQELENMLAICTLVPFSNNQILFHQGDRIKGIYIIIKGTVDLIARTLGKGITKIETCLASDFLGETSFLLNEPSATSAVAKDNVTCLFIPSAYFELMPAFSPEAKYKIMKAIGYQACGRLKQLHDKIIDFISHSDMQSLSFLGRVIQTFTQPKIHTLDESGVDKDQIYKKTLFNSFTQDETDELLEHAIPLTANKNCVLIHENETIPVCYIVIYGAVQSNVIQNSKIAKLSVIGPDSLFASTACFLSDTKFSITFITCESATLLKISEAELQYFQKNKPMIWYKLFNLICGSIISLARSLKKLDVRLNIEKYNQ,not soluble
15,MFFNKSLQQENQRLKQELYSLQQIQQSLDEEMLRLTLDAKGNVTSANQKFLQQLSLSDKDILAKHISDLVPSNVRNTDHFYRMKQSVQAKAFWNGAFQITKGDGEEAWLRVVIQPVRNASDQVESFFVFASELTRTITTSREYEDMLNALSRSMAVIEFTLDGTVLKANDNFLSTMGYKHEQIVGKHHRIFCLPEEANSSAYHDFWKRLASGQFVTDRFKRVDQHGSVVWLEASYNPIHNDRGELYKVVKFATNITQQVLQ,not soluble
16,MGSDKIHHHHHHMIEMTRMAACAAVHHDTQATQTGAAYAPAEQGGEPRESSASAYFWVGIDAGGSHCRALLTDDSGQVLGHGVAGPANPVNGVSQSQAAIMSAIDKALGAARLDKQYHRLIVGAGLAGLHLPKMQQVMNEWAHPFAAWHTTTDLHVAALGAHQGADGGVIILGTGFSSLANVKGQQILIGGHGFPINATCSGSWFGLEAVKAVLLDADGIGPGTSLTGKLLQGTNAMALAEQLMHANATDFARFAPQVFEQAGAGDAVSLSLIEQGATFINGVIRRLLATGIDSLSLVGGIAPLMQPWLAPDLSTRIRTAKASPEEGAILFARQCHVGNSRIQER,not soluble
17,MKIEVVSALPHSTVHSAVLSRRHRSVICAGPYEVLPLEGCSEPLPSTSTLSELPIECLRLSTDERTIGAATNAILKVADIITGHEVRNLTGHTLPITSLAASKFNPYCWYTGSSDCDWTQWDTRMNPSKIFGSKTPGVVRSIALSPGDRYVAVGTDETIQIFDARQREFIKTFNCSGHALELHPSDVLLSSVGHDRIVRFFCLETFEMISQSDPFLDDIQASAFDTHVMIAATNDSINLLTWEPCCDILTTVPLKNVEKVVNVNANGLDLDFICIGDNTERLEMRTYAIEELLSYSPSHELCGSIYEEDEDVDNSPIDEVKALPELTELSNLPPRSPGLSCEETETSASPVNSSSSHSSPTSPVKPAPVKHRSASQKLPGKSTKTLNPKPAGSTRSVTPVSTKPPRTFGTAKSVIVSSKPSLSGYNNRANPSPSMSDLRTTKSMAGSTTSLLSERAPKKRSTSSRRNQEPITITYIGRPRTPSEGDVASTVSSSTSRNRRPSPSVAKKTSPPSIYAITSSPAKRASSTASGPTARRQNSTSSVTSTTSAKTPVGVWGACIETVHDIGIVAKKENRNIRRLKMLTSRRTSNVDIPPEVCSDEQLVLTATRILSRRNDWSLNSCHAYLPVIIDNIASVDVTNRAIALEGLAAIADTLGERLVKFASMNSHRIGVDVAAEERAEKAKACVQHLRSLVKKRDWYYKQLDEPSILKLDPILELLKKI,not soluble

# From the DeepSol protein solubility set
